# Data as given in publication PMC10786891, “Massively parallel profiling of RNA-targeting CRISPR-Cas13d”.
# T1: EsCas13d, nuclease-dead (Eubacterium siraeum, UniProt B0MS50, R295A;H300A;R849A;H854A)
# T1 sequence: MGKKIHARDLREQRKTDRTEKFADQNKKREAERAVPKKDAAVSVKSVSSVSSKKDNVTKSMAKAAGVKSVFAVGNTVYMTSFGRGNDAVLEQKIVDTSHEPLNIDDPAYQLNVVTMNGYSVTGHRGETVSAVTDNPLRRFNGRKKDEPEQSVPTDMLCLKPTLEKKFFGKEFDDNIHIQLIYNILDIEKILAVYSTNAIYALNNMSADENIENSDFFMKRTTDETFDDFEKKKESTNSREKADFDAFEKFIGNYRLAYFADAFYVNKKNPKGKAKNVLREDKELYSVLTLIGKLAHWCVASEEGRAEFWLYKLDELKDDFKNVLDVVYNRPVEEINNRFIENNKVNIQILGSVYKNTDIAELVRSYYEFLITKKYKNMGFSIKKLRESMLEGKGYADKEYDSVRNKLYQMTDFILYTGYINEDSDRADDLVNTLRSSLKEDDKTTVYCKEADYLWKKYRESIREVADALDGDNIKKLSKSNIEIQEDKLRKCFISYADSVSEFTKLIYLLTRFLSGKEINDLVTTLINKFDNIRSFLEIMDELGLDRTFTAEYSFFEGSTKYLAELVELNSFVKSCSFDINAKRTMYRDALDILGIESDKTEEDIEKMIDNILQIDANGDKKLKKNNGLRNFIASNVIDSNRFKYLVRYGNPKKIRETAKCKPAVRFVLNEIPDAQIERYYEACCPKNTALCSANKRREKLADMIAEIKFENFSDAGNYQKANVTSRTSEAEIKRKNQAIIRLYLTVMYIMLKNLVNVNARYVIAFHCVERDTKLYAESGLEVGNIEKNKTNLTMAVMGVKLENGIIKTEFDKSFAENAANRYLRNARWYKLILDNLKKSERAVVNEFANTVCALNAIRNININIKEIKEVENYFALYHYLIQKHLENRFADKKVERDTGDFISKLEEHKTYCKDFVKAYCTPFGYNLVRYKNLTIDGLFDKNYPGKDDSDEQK
# Target: T1, EsCas13d, nuclease-dead
# Test: crRNA (strand 1, pre-loaded); Mg2+; 40 mM Tris-HCl pH 7.5, 150 mM NaCl, 6 mM MgCl2, 1 mM DTT, 0.1% Tween-20, 0.2 mg/ml BSA; 25 C; 10 min per concentration, then washed
# Details: tags: His6-TwinStrep-SUMO cleaved; N-terminal SNAP kept (SNAP-Surface 488); label: 3' end held by stalled T7 RNA polymerase
row,Binder,Kd
1,target 1 A14G (mixed) RNA 1: CACCCGUGCAAAAAUGCAGGGGUCUAAAACUGAGCGGAUAACCUCUCUAUGG RNA 2: GGGAAUGGAUCCACAUCUACGAAUUCGUACCAUAGAGGGGUUAUCCGCUCACCGAGAUCGGAAGAGCACACGU,13.9 ± 0.7 nM
2,"target 1 C6G,U8C (mixed) RNA 1: CACCCGUGCAAAAAUGCAGGGGUCUAAAACUGAGCGGAUAACCUCUCUAUGG RNA 2: GGGAAUGGAUCCACAUCUACGAAUUCGUACCAUAGAGAGGUUACCGGCUCACCGAGAUCGGAAGAGCACACGU",11.9 ± 0.6 nM
3,target 2 MT 5'PFS GCC 3'PFS CUG (mixed) RNA 1: CACCCGUGCAAAAUUGCAGGGGUCUAAAACCUUCUCCAAAUUGUUUCAUCCU RNA 2: GGGAAUGGAUCCACAUCUACGAAUUCGCCAGGAUGAAACAAUUUGGAGAAGCUGAGAUCGGAAGAGCACACGU,12.7 ± 2.1 nM
4,target 2 MT 5'PFS UAG 3'PFS UCA (mixed) RNA 1: CACCCGUGCAAAAUUGCAGGGGUCUAAAACCUUCUCCAAAUUGUUUCAUCCU RNA 2: GGGAAUGGAUCCACAUCUACGAAUUCUAGAGGAUGAAACAAUUUGGAGAAGUCAAGAUCGGAAGAGCACACGU,4.8 ± 0.7 nM
5,target 2 MT 5'PFS GGG 3'PFS CAU (mixed) RNA 1: CACCCGUGCAAAAUUGCAGGGGUCUAAAACCUUCUCCAAAUUGUUUCAUCCU RNA 2: GGGAAUGGAUCCACAUCUACGAAUUCGGGAGGAUGAAACAAUUUGGAGAAGCAUAGAUCGGAAGAGCACACGU,8 ± 0.8 nM
6,target 2 MT 5'PFS AAC 3'PFS UCA (mixed) RNA 1: CACCCGUGCAAAAUUGCAGGGGUCUAAAACCUUCUCCAAAUUGUUUCAUCCU RNA 2: GGGAAUGGAUCCACAUCUACGAAUUCAACAGGAUGAAACAAUUUGGAGAAGUCAAGAUCGGAAGAGCACACGU,9.3 ± 2.5 nM
7,target 2 MT 5'PFS GGA 3'PFS CAU (mixed) RNA 1: CACCCGUGCAAAAUUGCAGGGGUCUAAAACCUUCUCCAAAUUGUUUCAUCCU RNA 2: GGGAAUGGAUCCACAUCUACGAAUUCGGAAGGAUGAAACAAUUUGGAGAAGCAUAGAUCGGAAGAGCACACGU,9.1 ± 1.1 nM
8,target 2 MT 5'PFS UAG 3'PFS UCU (mixed) RNA 1: CACCCGUGCAAAAUUGCAGGGGUCUAAAACCUUCUCCAAAUUGUUUCAUCCU RNA 2: GGGAAUGGAUCCACAUCUACGAAUUCUAGAGGAUGAAACAAUUUGGAGAAGUCUAGAUCGGAAGAGCACACGU,38 ± 10 nM
9,target 2 MT 5'PFS AUG 3'PFS AUC (mixed) RNA 1: CACCCGUGCAAAAUUGCAGGGGUCUAAAACCUUCUCCAAAUUGUUUCAUCCU RNA 2: GGGAAUGGAUCCACAUCUACGAAUUCAUGAGGAUGAAACAAUUUGGAGAAGAUCAGAUCGGAAGAGCACACGU,9.3 ± 1.6 nM
10,target 2 MT 5'PFS GGA 3'PFS AGU (mixed) RNA 1: CACCCGUGCAAAAUUGCAGGGGUCUAAAACCUUCUCCAAAUUGUUUCAUCCU RNA 2: GGGAAUGGAUCCACAUCUACGAAUUCGGAAGGAUGAAACAAUUUGGAGAAGAGUAGAUCGGAAGAGCACACGU,14.1 ± 1.4 nM
11,target 2 MT 5'PFS UUU 3'PFS UCC (mixed) RNA 1: CACCCGUGCAAAAUUGCAGGGGUCUAAAACCUUCUCCAAAUUGUUUCAUCCU RNA 2: GGGAAUGGAUCCACAUCUACGAAUUCUUUAGGAUGAAACAAUUUGGAGAAGUCCAGAUCGGAAGAGCACACGU,20.7 ± 1.9 nM
12,target 2 MT 5'PFS AUG 3'PFS AUU (mixed) RNA 1: CACCCGUGCAAAAUUGCAGGGGUCUAAAACCUUCUCCAAAUUGUUUCAUCCU RNA 2: GGGAAUGGAUCCACAUCUACGAAUUCAUGAGGAUGAAACAAUUUGGAGAAGAUUAGAUCGGAAGAGCACACGU,9.9 ± 1.2 nM
13,target 2 MT 5'PFS ACA 3'PFS CAG (mixed) RNA 1: CACCCGUGCAAAAUUGCAGGGGUCUAAAACCUUCUCCAAAUUGUUUCAUCCU RNA 2: GGGAAUGGAUCCACAUCUACGAAUUCACAAGGAUGAAACAAUUUGGAGAAGCAGAGAUCGGAAGAGCACACGU,4.8 ± 0.9 nM
14,target 2 MT 5'PFS GCC 3'PFS CUU (mixed) RNA 1: CACCCGUGCAAAAUUGCAGGGGUCUAAAACCUUCUCCAAAUUGUUUCAUCCU RNA 2: GGGAAUGGAUCCACAUCUACGAAUUCGCCAGGAUGAAACAAUUUGGAGAAGCUUAGAUCGGAAGAGCACACGU,10.5 ± 1.9 nM
15,target 2 MT 5'PFS GAU 3'PFS CUA (mixed) RNA 1: CACCCGUGCAAAAUUGCAGGGGUCUAAAACCUUCUCCAAAUUGUUUCAUCCU RNA 2: GGGAAUGGAUCCACAUCUACGAAUUCGAUAGGAUGAAACAAUUUGGAGAAGCUAAGAUCGGAAGAGCACACGU,11.9 ± 1.7 nM
16,target 2 MT 5'PFS UCG 3'PFS CCA (mixed) RNA 1: CACCCGUGCAAAAUUGCAGGGGUCUAAAACCUUCUCCAAAUUGUUUCAUCCU RNA 2: GGGAAUGGAUCCACAUCUACGAAUUCUCGAGGAUGAAACAAUUUGGAGAAGCCAAGAUCGGAAGAGCACACGU,31 ± 11 nM
17,target 2 MT 5'PFS CUC 3'PFS CGC (mixed) RNA 1: CACCCGUGCAAAAUUGCAGGGGUCUAAAACCUUCUCCAAAUUGUUUCAUCCU RNA 2: GGGAAUGGAUCCACAUCUACGAAUUCCUCAGGAUGAAACAAUUUGGAGAAGCGCAGAUCGGAAGAGCACACGU,2.25 ± 0.29 nM
18,target 2 MT 5'PFS GAU 3'PFS CUU (mixed) RNA 1: CACCCGUGCAAAAUUGCAGGGGUCUAAAACCUUCUCCAAAUUGUUUCAUCCU RNA 2: GGGAAUGGAUCCACAUCUACGAAUUCGAUAGGAUGAAACAAUUUGGAGAAGCUUAGAUCGGAAGAGCACACGU,22 ± 4 nM
19,target 2 MT 5'PFS ACA 3'PFS CAU (mixed) RNA 1: CACCCGUGCAAAAUUGCAGGGGUCUAAAACCUUCUCCAAAUUGUUUCAUCCU RNA 2: GGGAAUGGAUCCACAUCUACGAAUUCACAAGGAUGAAACAAUUUGGAGAAGCAUAGAUCGGAAGAGCACACGU,4.4 ± 1 nM
20,target 2 MT 5'PFS CUC 3'PFS CGA (mixed) RNA 1: CACCCGUGCAAAAUUGCAGGGGUCUAAAACCUUCUCCAAAUUGUUUCAUCCU RNA 2: GGGAAUGGAUCCACAUCUACGAAUUCCUCAGGAUGAAACAAUUUGGAGAAGCGAAGAUCGGAAGAGCACACGU,1.62 ± 0.31 nM
21,target 2 MT 5'PFS GGG 3'PFS CAC (mixed) RNA 1: CACCCGUGCAAAAUUGCAGGGGUCUAAAACCUUCUCCAAAUUGUUUCAUCCU RNA 2: GGGAAUGGAUCCACAUCUACGAAUUCGGGAGGAUGAAACAAUUUGGAGAAGCACAGAUCGGAAGAGCACACGU,9.4 ± 1 nM
22,target 2 MT 5'PFS GAU 3'PFS CUG (mixed) RNA 1: CACCCGUGCAAAAUUGCAGGGGUCUAAAACCUUCUCCAAAUUGUUUCAUCCU RNA 2: GGGAAUGGAUCCACAUCUACGAAUUCGAUAGGAUGAAACAAUUUGGAGAAGCUGAGAUCGGAAGAGCACACGU,14.9 ± 2 nM
23,target 2 MT 5'PFS GGG 3'PFS CAA (mixed) RNA 1: CACCCGUGCAAAAUUGCAGGGGUCUAAAACCUUCUCCAAAUUGUUUCAUCCU RNA 2: GGGAAUGGAUCCACAUCUACGAAUUCGGGAGGAUGAAACAAUUUGGAGAAGCAAAGAUCGGAAGAGCACACGU,4.9 ± 0.5 nM
24,target 2 MT 5'PFS GGG 3'PFS CAG (mixed) RNA 1: CACCCGUGCAAAAUUGCAGGGGUCUAAAACCUUCUCCAAAUUGUUUCAUCCU RNA 2: GGGAAUGGAUCCACAUCUACGAAUUCGGGAGGAUGAAACAAUUUGGAGAAGCAGAGAUCGGAAGAGCACACGU,9 ± 0.8 nM
25,target 2 MT 5'PFS UUU 3'PFS UCA (mixed) RNA 1: CACCCGUGCAAAAUUGCAGGGGUCUAAAACCUUCUCCAAAUUGUUUCAUCCU RNA 2: GGGAAUGGAUCCACAUCUACGAAUUCUUUAGGAUGAAACAAUUUGGAGAAGUCAAGAUCGGAAGAGCACACGU,8.7 ± 1 nM
26,target 2 MT 5'PFS AUG 3'PFS AUA (mixed) RNA 1: CACCCGUGCAAAAUUGCAGGGGUCUAAAACCUUCUCCAAAUUGUUUCAUCCU RNA 2: GGGAAUGGAUCCACAUCUACGAAUUCAUGAGGAUGAAACAAUUUGGAGAAGAUAAGAUCGGAAGAGCACACGU,9 ± 1.1 nM
27,target 2 MT 5'PFS AAC 3'PFS UCU (mixed) RNA 1: CACCCGUGCAAAAUUGCAGGGGUCUAAAACCUUCUCCAAAUUGUUUCAUCCU RNA 2: GGGAAUGGAUCCACAUCUACGAAUUCAACAGGAUGAAACAAUUUGGAGAAGUCUAGAUCGGAAGAGCACACGU,14 ± 4 nM
28,target 2 MT 5'PFS GAU 3'PFS CUC (mixed) RNA 1: CACCCGUGCAAAAUUGCAGGGGUCUAAAACCUUCUCCAAAUUGUUUCAUCCU RNA 2: GGGAAUGGAUCCACAUCUACGAAUUCGAUAGGAUGAAACAAUUUGGAGAAGCUCAGAUCGGAAGAGCACACGU,17.8 ± 2.4 nM
